The values below come from the supplement of paper PMC9112550, “Optimization of the antimicrobial peptide Bac7 by deep mutational scanning” (BMC Biology, 2022).
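Note: peptides expressed intracellularly from a pBAD plasmid library in pooled LB shake-flask culture, induced with 0.3% L-arabinose, DNA abundance read by NGS, three biological replicates, DESeq2 with apeglm shrinkage.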

For the data set, the system named is Escherichia coli TOP10. As to the kind of experiment: shrunken log2 fold change of peptide-encoding DNA abundance (4.5 h post-induction vs induction); higher = less antimicrobial activity (less host growth inhibition). The following applies: time post-induction: 4.5 h; library: site-saturation at positions 5, 18, 19, 20.
As for RRIRHRPPRLPRPRPRPMRNPRP, the “shrunken log2 fold change” value came out at 0.435.

On to RRIRARPPRLPRPRPRPHVWPRP, for which the “shrunken log2 fold change” value turned out to be 0.29.

In the case of RRIRMRPPRLPRPRPRPMIKPRP, the “shrunken log2 fold change” value was -0.262.

For RRIRGRPPRLPRPRPRPMETPRP, the “shrunken log2 fold change” value turned out to be 0.00487.

With RRIRVRPPRLPRPRPRPLCEPRP, the “shrunken log2 fold change” value was -0.131.

Turning to RRIRMRPPRLPRPRPRPGMEPRP, the “shrunken log2 fold change” value came to 0.183.

RRIRRRPPRLPRPRPRPSWKPRP: the “shrunken log2 fold change” value came out at 0.16.

On to RRIRERPPRLPRPRPRPCHFPRP, for which the “shrunken log2 fold change” value was 0.161.

RRIRSRPPRLPRPRPRPGQDPRP: the “shrunken log2 fold change” value is -0.329.

For the sequence RRIRSRPPRLPRPRPRPAQHPRP, the “shrunken log2 fold change” value was found to be 0.0967.

For the sequence RRIRNRPPRLPRPRPRPGHPPRP, the “shrunken log2 fold change” value was -0.0813.

Consider RRIRMRPPRLPRPRPRPGMQPRP, for which the “shrunken log2 fold change” value was -0.00144.

For the sequence RRIRDRPPRLPRPRPRPVDKPRP, the “shrunken log2 fold change” value is -0.01.

Regarding RRIRLRPPRLPRPRPRPSPKPRP, the “shrunken log2 fold change” value is 0.0205.

Turning to RRIRMRPPRLPRPRPRPHWTPRP, the “shrunken log2 fold change” value was -0.106.

As to RRIRHRPPRLPRPRPRPIECPRP, the “shrunken log2 fold change” value came out at 0.0039.

In the case of RRIRNRPPRLPRPRPRPNYLPRP, the “shrunken log2 fold change” value was -0.354.

With RRIRMRPPRLPRPRPRPCSYPRP, the “shrunken log2 fold change” value was -0.0368.

Consider RRIRDRPPRLPRPRPRPSVYPRP, for which the “shrunken log2 fold change” value is -0.404.

Take RRIRGRPPRLPRPRPRPFAIPRP: the “shrunken log2 fold change” value was -0.0466.

RRIRFRPPRLPRPRPRPKYIPRP: the “shrunken log2 fold change” value was -0.678.

Take RRIRKRPPRLPRPRPRPPERPRP: the “shrunken log2 fold change” value stood at 2.02.

As to RRIRKRPPRLPRPRPRPDCCPRP, the “shrunken log2 fold change” value amounted to 0.435.

RRIRWRPPRLPRPRPRPWNYPRP: the “shrunken log2 fold change” value was -0.98.

For RRIRHRPPRLPRPRPRPRFPPRP, the “shrunken log2 fold change” value stood at 0.0956.

With RRIRNRPPRLPRPRPRPHEQPRP, the “shrunken log2 fold change” value is -0.066.

With RRIRRRPPRLPRPRPRPTMHPRP, the “shrunken log2 fold change” value came out at 0.539.

As to RRIRWRPPRLPRPRPRPVNMPRP, the “shrunken log2 fold change” value was -0.101.

Turning to RRIRARPPRLPRPRPRPPTIPRP, the “shrunken log2 fold change” value was determined as 0.0349.

Consider RRIRGRPPRLPRPRPRPCNEPRP, for which the “shrunken log2 fold change” value came out at 0.0278.

For the sequence RRIRMRPPRLPRPRPRPFPWPRP, the “shrunken log2 fold change” value stood at 0.114.

On to RRIRFRPPRLPRPRPRPASFPRP, for which the “shrunken log2 fold change” value was 0.279.

As for RRIRNRPPRLPRPRPRPCSEPRP, the “shrunken log2 fold change” value was -0.231.

With RRIRKRPPRLPRPRPRPCENPRP, the “shrunken log2 fold change” value was 0.0184.

As for RRIRTRPPRLPRPRPRPEMEPRP, the “shrunken log2 fold change” value was 0.0702.

For RRIRVRPPRLPRPRPRPNYMPRP, the “shrunken log2 fold change” value was -0.923.

For the sequence RRIRTRPPRLPRPRPRPGHEPRP, the “shrunken log2 fold change” value stood at 0.0552.

Take RRIRTRPPRLPRPRPRPICRPRP: the “shrunken log2 fold change” value worked out at 0.0229.

On to RRIRQRPPRLPRPRPRPNLYPRP, for which the “shrunken log2 fold change” value is -0.647.

RRIRHRPPRLPRPRPRPHLTPRP: the “shrunken log2 fold change” value was -0.0621.

In the case of RRIRQRPPRLPRPRPRPHGWPRP, the “shrunken log2 fold change” value is -0.0188.

As for RRIRRRPPRLPRPRPRPGHLPRP, the “shrunken log2 fold change” value worked out at 0.067.

Take RRIRPRPPRLPRPRPRPNQMPRP: the “shrunken log2 fold change” value is -0.129.

Regarding RRIRGRPPRLPRPRPRPCTAPRP, the “shrunken log2 fold change” value amounted to 0.875.

In the case of RRIRSRPPRLPRPRPRPRCGPRP, the “shrunken log2 fold change” value stood at 0.34.

RRIRSRPPRLPRPRPRPSHFPRP: the “shrunken log2 fold change” value was -0.182.

Turning to RRIRRRPPRLPRPRPRPAMAPRP, the “shrunken log2 fold change” value came out at 0.342.

In the case of RRIRVRPPRLPRPRPRPPYRPRP, the “shrunken log2 fold change” value was -0.0303.

As for RRIRTRPPRLPRPRPRPGCIPRP, the “shrunken log2 fold change” value is -0.22.

For RRIRERPPRLPRPRPRPPWVPRP, the “shrunken log2 fold change” value is -0.0642.

As for RRIRLRPPRLPRPRPRPKDSPRP, the “shrunken log2 fold change” value was -0.139.

Take RRIRWRPPRLPRPRPRPMHHPRP: the “shrunken log2 fold change” value was -0.261.

Regarding RRIRDRPPRLPRPRPRPGQTPRP, the “shrunken log2 fold change” value turned out to be 0.032.

Take RRIRFRPPRLPRPRPRPTMVPRP: the “shrunken log2 fold change” value is -0.129.

On to RRIRQRPPRLPRPRPRPMDSPRP, for which the “shrunken log2 fold change” value is -0.01.

With RRIRCRPPRLPRPRPRPANTPRP, the “shrunken log2 fold change” value was -0.265.

In the case of RRIRVRPPRLPRPRPRPFFAPRP, the “shrunken log2 fold change” value worked out at 0.238.

For the sequence RRIRKRPPRLPRPRPRPKRYPRP, the “shrunken log2 fold change” value is 0.032.

RRIRYRPPRLPRPRPRPEVAPRP: the “shrunken log2 fold change” value is -0.0541.

As for RRIRLRPPRLPRPRPRPCSDPRP, the “shrunken log2 fold change” value stood at 0.0181.

For the sequence RRIRVRPPRLPRPRPRPIVQPRP, the “shrunken log2 fold change” value was -0.223.

In the case of RRIRNRPPRLPRPRPRPKAAPRP, the “shrunken log2 fold change” value came out at 3.06.

In the case of RRIRKRPPRLPRPRPRPDANPRP, the “shrunken log2 fold change” value was -0.0872.

RRIRPRPPRLPRPRPRPSDPPRP: the “shrunken log2 fold change” value is -0.184.

In the case of RRIRLRPPRLPRPRPRPCSNPRP, the “shrunken log2 fold change” value was -0.47.

On to RRIRLRPPRLPRPRPRPDEHPRP, for which the “shrunken log2 fold change” value was -0.287.

Regarding RRIRLRPPRLPRPRPRPLEEPRP, the “shrunken log2 fold change” value was determined as 0.543.

Regarding RRIRDRPPRLPRPRPRPVQHPRP, the “shrunken log2 fold change” value is -0.012.

Regarding RRIRWRPPRLPRPRPRPRGMPRP, the “shrunken log2 fold change” value is 0.313.

RRIRTRPPRLPRPRPRPNFTPRP: the “shrunken log2 fold change” value was -0.0395.

As to RRIRFRPPRLPRPRPRPADRPRP, the “shrunken log2 fold change” value was -0.0752.

Turning to RRIRDRPPRLPRPRPRPWHFPRP, the “shrunken log2 fold change” value is -0.01.

RRIRIRPPRLPRPRPRPMPLPRP: the “shrunken log2 fold change” value stood at 0.124.

Take RRIRHRPPRLPRPRPRPAEHPRP: the “shrunken log2 fold change” value is -0.144.

As to RRIRDRPPRLPRPRPRPHVLPRP, the “shrunken log2 fold change” value is 0.00542.

As to RRIRCRPPRLPRPRPRPIPMPRP, the “shrunken log2 fold change” value was -0.108.

In the case of RRIRDRPPRLPRPRPRPRDKPRP, the “shrunken log2 fold change” value was -0.0712.

As for RRIRLRPPRLPRPRPRPGWDPRP, the “shrunken log2 fold change” value was determined as 0.507.

With RRIRLRPPRLPRPRPRPWWVPRP, the “shrunken log2 fold change” value turned out to be 0.0559.

As for RRIRCRPPRLPRPRPRPWVVPRP, the “shrunken log2 fold change” value was -0.168.

RRIRFRPPRLPRPRPRPMLMPRP: the “shrunken log2 fold change” value was -0.0715.

As to RRIRQRPPRLPRPRPRPDTLPRP, the “shrunken log2 fold change” value came to 0.016.

Consider RRIRSRPPRLPRPRPRPCVQPRP, for which the “shrunken log2 fold change” value is -0.0792.

RRIRQRPPRLPRPRPRPTWPPRP: the “shrunken log2 fold change” value amounted to 0.268.

As for RRIRMRPPRLPRPRPRPVLPPRP, the “shrunken log2 fold change” value is -0.0643.

Consider RRIRERPPRLPRPRPRPHHKPRP, for which the “shrunken log2 fold change” value was -0.449.

In the case of RRIRYRPPRLPRPRPRPISAPRP, the “shrunken log2 fold change” value was -0.373.

RRIRHRPPRLPRPRPRPHKNPRP: the “shrunken log2 fold change” value is -0.263.

For the sequence RRIRPRPPRLPRPRPRPDFNPRP, the “shrunken log2 fold change” value stood at 1.09.

Take RRIRVRPPRLPRPRPRPCDNPRP: the “shrunken log2 fold change” value was -0.418.

On to RRIRNRPPRLPRPRPRPFRIPRP, for which the “shrunken log2 fold change” value is -0.0132.

For the sequence RRIRARPPRLPRPRPRPAMGPRP, the “shrunken log2 fold change” value was found to be 0.505.

Consider RRIRTRPPRLPRPRPRPRKEPRP, for which the “shrunken log2 fold change” value amounted to 0.102.

As to RRIRCRPPRLPRPRPRPCIEPRP, the “shrunken log2 fold change” value is -0.453.

Take RRIRVRPPRLPRPRPRPRVRPRP: the “shrunken log2 fold change” value is 0.363.

RRIRQRPPRLPRPRPRPPALPRP: the “shrunken log2 fold change” value was -0.179.

Regarding RRIRDRPPRLPRPRPRPLSCPRP, the “shrunken log2 fold change” value is -0.212.

Consider RRIRQRPPRLPRPRPRPVTQPRP, for which the “shrunken log2 fold change” value was -0.378.

Turning to RRIRTRPPRLPRPRPRPGMYPRP, the “shrunken log2 fold change” value was -0.3.

RRIRTRPPRLPRPRPRPETEPRP: the “shrunken log2 fold change” value was -0.016.

For RRIRKRPPRLPRPRPRPYAFPRP, the “shrunken log2 fold change” value is -0.111.

RRIRKRPPRLPRPRPRPPPDPRP: the “shrunken log2 fold change” value was 0.906.

As to RRIRDRPPRLPRPRPRPKYDPRP, the “shrunken log2 fold change” value came out at 0.0612.

As to RRIRKRPPRLPRPRPRPRDGPRP, the “shrunken log2 fold change” value worked out at 0.822.

On to RRIRRRPPRLPRPRPRPWDKPRP, for which the “shrunken log2 fold change” value came out at 0.0425.

For RRIRGRPPRLPRPRPRPEGNPRP, the “shrunken log2 fold change” value came out at 0.0816.

With RRIRGRPPRLPRPRPRPTYGPRP, the “shrunken log2 fold change” value came out at 0.372.

For the sequence RRIRDRPPRLPRPRPRPDNDPRP, the “shrunken log2 fold change” value stood at 0.212.

For RRIRARPPRLPRPRPRPRIVPRP, the “shrunken log2 fold change” value was found to be 0.547.

Regarding RRIRNRPPRLPRPRPRPVCRPRP, the “shrunken log2 fold change” value is 0.0204.

With RRIRDRPPRLPRPRPRPIMFPRP, the “shrunken log2 fold change” value is 0.0387.

RRIRGRPPRLPRPRPRPLCKPRP: the “shrunken log2 fold change” value was 0.529.

RRIRQRPPRLPRPRPRPCRNPRP: the “shrunken log2 fold change” value was -0.0117.

In the case of RRIRPRPPRLPRPRPRPYCSPRP, the “shrunken log2 fold change” value was -0.294.

As to RRIRERPPRLPRPRPRPHYGPRP, the “shrunken log2 fold change” value is -0.249.

With RRIRDRPPRLPRPRPRPSMIPRP, the “shrunken log2 fold change” value is -0.162.

For the sequence RRIRRRPPRLPRPRPRPCWCPRP, the “shrunken log2 fold change” value is -0.138.

Take RRIRARPPRLPRPRPRPMRSPRP: the “shrunken log2 fold change” value worked out at 0.0669.

In the case of RRIRGRPPRLPRPRPRPRKSPRP, the “shrunken log2 fold change” value was 0.326.

As for RRIRIRPPRLPRPRPRPGDPPRP, the “shrunken log2 fold change” value was -0.0811.

As to RRIRRRPPRLPRPRPRPEHQPRP, the “shrunken log2 fold change” value is 0.25.

Consider RRIRTRPPRLPRPRPRPDGEPRP, for which the “shrunken log2 fold change” value amounted to 0.0799.

Regarding RRIRKRPPRLPRPRPRPKLFPRP, the “shrunken log2 fold change” value came out at 0.379.

For the sequence RRIRNRPPRLPRPRPRPADGPRP, the “shrunken log2 fold change” value amounted to 0.085.

Regarding RRIRIRPPRLPRPRPRPFHYPRP, the “shrunken log2 fold change” value turned out to be 0.0334.
